pKd: −log10 of the molar value.
Key:
[1] = target: SOX2DBD (human) (UniProt P48431); test: EMSA; conditions: EMSA: 10 mM HEPES-NaOH pH 7.3, 50 mM KCl, 5 mM MgCl2, 0.5 mM DTT, 5% glycerol, 0.5 mg/ml BSA; 1 h incubation; 1 nM DNA (Fig 2B); 4% native PAGE, 0.5x TBE, 4 C
[2] = target: p300 full length (human) (UniProt Q09472); test: EMSA; conditions: EMSA: 10 mM HEPES-NaOH pH 7.3, 50 mM KCl, 5 mM MgCl2, 0.5 mM DTT, 5% glycerol, 0.5 mg/ml BSA; 1 h incubation; 1 nM DNA (Fig 2B); 4% native PAGE, 0.5x TBE, 4 C
[3] = target: SOX2 mutant E78A (human) (UniProt P48431)
[4] = target: SOX2 mutant E86A (human) (UniProt P48431)
[5] = target: full-length human SOX2 (human) (UniProt P48431); test: BLI; SOX2 (0.2 mg/ml) immobilised on an AR2G chip, quenched with 1 M ethanolamine; p300 fragments in PBS; global fit to a 1:1 binding model (BLItz Pro v.1.2.1.5)
full-length human SOX2 (human), sequence (P48431 whole entry, the tested form may be a part): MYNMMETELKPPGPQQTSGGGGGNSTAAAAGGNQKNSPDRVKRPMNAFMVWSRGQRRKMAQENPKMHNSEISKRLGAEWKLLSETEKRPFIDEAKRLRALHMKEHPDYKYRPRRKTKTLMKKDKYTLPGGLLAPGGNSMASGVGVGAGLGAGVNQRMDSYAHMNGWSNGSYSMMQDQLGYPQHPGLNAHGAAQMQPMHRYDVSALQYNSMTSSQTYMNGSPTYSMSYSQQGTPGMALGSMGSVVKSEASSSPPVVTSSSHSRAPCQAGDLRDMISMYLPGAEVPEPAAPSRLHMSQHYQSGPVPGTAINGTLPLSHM

SOX2DBD (human), sequence (P48431 39-127): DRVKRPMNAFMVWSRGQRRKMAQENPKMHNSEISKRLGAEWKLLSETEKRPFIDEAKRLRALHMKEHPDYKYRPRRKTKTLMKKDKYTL
SOX2 mutant E86A (human), sequence (P48431 whole entry E86A, the tested form may be a part): as the sequence (P48431 whole entry, the tested form may be a part) above, with E86A counted along it
p300 full length (human), sequence (Q09472 whole entry): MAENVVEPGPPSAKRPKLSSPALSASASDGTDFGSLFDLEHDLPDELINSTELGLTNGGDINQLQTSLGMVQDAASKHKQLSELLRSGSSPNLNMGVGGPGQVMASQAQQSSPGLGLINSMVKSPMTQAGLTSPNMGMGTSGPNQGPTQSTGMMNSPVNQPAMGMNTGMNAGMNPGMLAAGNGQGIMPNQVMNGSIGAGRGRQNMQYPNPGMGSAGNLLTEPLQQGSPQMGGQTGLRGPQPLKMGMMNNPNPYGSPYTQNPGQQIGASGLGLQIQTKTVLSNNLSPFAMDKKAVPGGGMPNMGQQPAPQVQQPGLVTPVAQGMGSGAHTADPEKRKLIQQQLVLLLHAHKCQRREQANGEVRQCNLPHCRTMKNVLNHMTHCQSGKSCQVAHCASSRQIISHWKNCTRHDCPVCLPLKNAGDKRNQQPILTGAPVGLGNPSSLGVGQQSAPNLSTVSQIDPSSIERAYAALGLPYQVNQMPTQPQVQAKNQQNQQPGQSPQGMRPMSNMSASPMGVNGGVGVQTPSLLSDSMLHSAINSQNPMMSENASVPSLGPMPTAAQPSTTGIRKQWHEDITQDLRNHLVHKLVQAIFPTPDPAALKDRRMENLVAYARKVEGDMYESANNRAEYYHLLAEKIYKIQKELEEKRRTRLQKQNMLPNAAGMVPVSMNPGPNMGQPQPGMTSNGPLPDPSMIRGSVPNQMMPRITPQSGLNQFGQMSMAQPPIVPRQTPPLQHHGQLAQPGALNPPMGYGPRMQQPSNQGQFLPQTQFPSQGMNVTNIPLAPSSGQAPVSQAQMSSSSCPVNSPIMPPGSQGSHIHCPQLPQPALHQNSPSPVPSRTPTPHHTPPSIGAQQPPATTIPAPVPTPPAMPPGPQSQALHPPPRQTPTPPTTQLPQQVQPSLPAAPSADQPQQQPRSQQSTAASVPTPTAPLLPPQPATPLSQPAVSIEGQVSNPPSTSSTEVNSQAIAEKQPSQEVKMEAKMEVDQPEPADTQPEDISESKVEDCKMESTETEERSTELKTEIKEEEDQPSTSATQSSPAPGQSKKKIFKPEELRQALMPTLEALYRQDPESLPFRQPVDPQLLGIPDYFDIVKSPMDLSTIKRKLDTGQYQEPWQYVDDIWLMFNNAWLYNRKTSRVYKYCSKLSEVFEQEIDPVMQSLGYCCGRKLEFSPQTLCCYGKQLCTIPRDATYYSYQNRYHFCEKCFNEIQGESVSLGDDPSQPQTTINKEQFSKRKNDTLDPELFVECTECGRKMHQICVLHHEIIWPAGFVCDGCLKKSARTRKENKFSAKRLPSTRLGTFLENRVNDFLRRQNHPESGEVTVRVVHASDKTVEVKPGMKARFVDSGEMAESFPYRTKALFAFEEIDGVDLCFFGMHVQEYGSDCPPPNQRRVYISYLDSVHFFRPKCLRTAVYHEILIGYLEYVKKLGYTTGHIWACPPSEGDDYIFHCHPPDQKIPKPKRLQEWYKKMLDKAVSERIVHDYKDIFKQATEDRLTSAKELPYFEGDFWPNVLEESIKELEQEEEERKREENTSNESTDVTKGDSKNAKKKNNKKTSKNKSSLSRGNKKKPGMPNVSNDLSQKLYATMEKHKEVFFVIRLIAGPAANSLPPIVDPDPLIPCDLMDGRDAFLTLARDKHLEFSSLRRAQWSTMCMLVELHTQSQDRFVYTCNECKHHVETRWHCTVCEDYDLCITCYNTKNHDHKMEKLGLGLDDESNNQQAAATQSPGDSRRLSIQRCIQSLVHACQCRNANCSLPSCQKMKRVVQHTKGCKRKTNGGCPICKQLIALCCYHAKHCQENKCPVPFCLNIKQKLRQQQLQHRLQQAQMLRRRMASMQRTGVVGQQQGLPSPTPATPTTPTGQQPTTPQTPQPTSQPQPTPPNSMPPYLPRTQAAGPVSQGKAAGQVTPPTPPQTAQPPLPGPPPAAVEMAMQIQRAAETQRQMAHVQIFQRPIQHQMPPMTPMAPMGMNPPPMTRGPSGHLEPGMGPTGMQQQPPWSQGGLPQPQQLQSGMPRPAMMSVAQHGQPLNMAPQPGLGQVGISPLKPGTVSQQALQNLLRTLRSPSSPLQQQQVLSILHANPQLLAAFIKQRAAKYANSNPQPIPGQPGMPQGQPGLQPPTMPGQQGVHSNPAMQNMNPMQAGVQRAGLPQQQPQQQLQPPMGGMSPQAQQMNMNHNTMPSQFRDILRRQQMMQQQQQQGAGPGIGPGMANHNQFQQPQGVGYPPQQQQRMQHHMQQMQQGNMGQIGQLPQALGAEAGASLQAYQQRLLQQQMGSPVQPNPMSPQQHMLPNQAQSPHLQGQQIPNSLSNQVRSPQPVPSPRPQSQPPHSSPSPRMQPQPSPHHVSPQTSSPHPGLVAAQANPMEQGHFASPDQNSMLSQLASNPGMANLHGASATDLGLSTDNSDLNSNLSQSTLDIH
SOX2 mutant E78A (human), sequence (P48431 whole entry E78A): as the sequence (P48431 whole entry, the tested form may be a part) above, with E78A counted along it

GCGGTCCATTATTCCAATTGATTTCAATTCTATTGATAGTCAGATTGAGAGACTCAGGTGCCTCTTTTGAATATCTTCTTTTGTTGGGGCCGCACACCCTGAGAGGTGGTGGAAGTCTGAGTTAGACTTTAGCCTGATCTACATAGCAAGTTCCGGGACATGCAAGGACTAC (double strand) [SM]
binding signal [1]: 71 % bound
binding [2]: no binding

GTAGTCCTTGCATGTCCCGGAACTTGCTATGTAGATCAGGCTAAAGTCTAACTCAGACTTCCACCACCTCTCAGGGTGTGCGGCCCCAAGATAAGAAGATATTCAAAAGAGGCACCTGAGTCTCTCAATCTGACTATCAATAGAATTGAAATCAATTGGAATAATGGACCGC (double strand) [dSM]
binding [1]: no binding

full-length p300 (Protein One), Q09472 1-2414
luciferase activity of pGL3-SM in cells expressing the SOX2 mutant, relative to wild-type SOX2 [3]: 30%
luciferase activity of pGL3-SM in cells expressing the SOX2 mutant, relative to wild-type SOX2 [4]: 30%

p300 KIX domain (aa 566-646) (from UniProt Q09472 566-646) (domain or fragment)
pKd [5]: 5.57
koff [5]: 0.0469 s⁻¹
kon [5]: 12300 M⁻¹ s⁻¹
